The record followed here is PMC7367260, “Nucleosome binding by the pioneer transcription factor OCT4” (Scientific Reports, 2020).

One test deals with human histone H3.1 (human, UniProt P68431 1-136). Put plainly: cross-linking; XL-MS: LIN28B nucleosome (4.3 µM) mixed with OCT4 at nucleosome:OCT4 = 1:4, 1 h on ice, crosslinked with 9.6 mM DSS-H12/D12 at 30 °C for 30 min; Trypsin/Lys-C digest, LC/MS-MS, xQuest/xProphet. The note with it: both partners purified.
The next test addresses T1, human histone H4 (human, UniProt P62805 1-103).
T1 construct: histone H4, human canonical histone, wild type; Stood in the assays as part of the reconstituted LIN28B nucleosome; The H4 S47C mutant was used only for the chemical probing assay
The description is as above. The following applies: both partners purified.

B1: His6-tagged human OCT4 (5CS) (natural protein)
chain: MAGHLASDFAFSPPPGGGGDGPGGPEPGWVDPRTWLSFQGPPGGPGIGPGVGPGSEVWGIPPCPPPYEFCGGMAYCGPQVGVGLVPQGGLETSQPEGEAGVGVESNSDGASPEPCTVTPGAVKLEKEKLEQNPEESQDIKALQKELEQFAKLLKQKRITLGYTQADVGLTLGVLFGKVFSQTTISRFEALQLSFKNMSKLRPLLQKWVEEADNNENLQEISKAETLVQARKRKRTSIENRVRGNLENLFLQSPKPTLQQISHIAQQLGLEKDVVRVWFSNRRQKGKRSSSDYAQREDFEAAGSPFSGGPVSFPLAPGPHFGTPGYGSPHFTALYSSVPFPEGEAFPPVSVTTLGSPMHSN
notes: OCT4, human; 5CS mutant: all 5 Cys residues of the POUS·POUHD domain replaced with Ser; Expressed from pET15b in which the thrombin site was replaced with a PreScission site; no cleavage step is described, and the gel-shift methods name His6-OCT4 (5CS). pET15b would place the tag at the N-terminus (surmised); also called His6-OCT4 (5CS)
Take B1: the binding result with human histone H3.1 and with human histone H4 was “binds” in each case.
